Measured values reported in a protein production outcome set (Wang et al. 2014).

Assay: label from the status in PepcDB records

Row | Sequence | protein production
1 | MAEYEDRYWTSSDGLRLHFRAYEGDISRPPVLCLPGLTRNARDFEDLATRLAGDWRVLCPEMRGRGDSDYAKDPMTYQPMQYLQDLEALLAQEGIERFVAIGTSLGGLLTMLLAAANPARIAAAVLNDVGPEVSPEGLERIRGYVGQGRNFETWMHAARALQESSGDVYPDWDITQWLRYAKRIMVLGSSGRIAFDYDMKIAEPFEAPVGATPQVDMWPLFDALATRPLLVLRGETSDILSAQTAAKMASRPGVELVTLPRIGHAPTLDEPESIAAIGRLLERV | not failed
2 | MAFCSLEKRHAILDWPQLQLTNGSGRCSGRVEVYYHGQWGRVCDDQWDLREADVVCRQLNCGDALEAPVQARFGDGPGEFLLDEMDCTGTESFLGQCPHAGWHLHNCGSGEDASVICEGNGEELVARPQVLPVADPVPGSRRAHVPRLSLNGADMSPDPTPVIDPDPESSKPSGDWAPVRLSGNHGSCAGRVELFYQGVWGTVCDDLWDLTEANIICRQLGCGRAVSALSEAYFGQGSGKILLDNVHCKGHEEHLEECSHLGWFSHNCDHSEDASVICSDAEYGMATLSDHPLAVMEGAMNPEKSRCGGVITKAPGKIKNPPMNEMHDNITCVWEIRANTSDRIRLAFPSLDLDCTNEYFEILDGPPSSVKSLGKPCRGLHVTFASHSNSMTLVYFRGENNIGKNFMAYYYFEAKEVTTKTPYLITIPTATSKMVTERPQFSKPAQPTHTPSGNVSPLPVPDSGDWPELRLVGGSNRCSGRVEILYQGVWGTVCDDLWDLNEAEVVCRQLECGQAVSSLGEAYFGPGSGDIFLDNLQCSGLEHYLSQCPHSGWSEHNCGHHEDAGVICSDSGAPPPPMPPGPPPTSQDPLTGGSNSCGGVISSLSGSFTSPQYPENYPTDIQCVWEIHVEKNFRIELMIPNLNLEDILGCPYDSVEIFDGPRIPSLSMGKFCAPSAVVFFSSSDILTVVFRSDYMTTNTGFYAFFNAIPQDGKESEERPVLRLAGSSGQCSGRVEILHQGAWGTVCDDLWDLNEAEVVCRQLGCGHAIAAPGSAYFGPGSGNILLDNIQCSGKENHFGQCSSSAWLDHNCGHHEDAGVICSDAEVTPSPTEGSQSCGGVISSLSGSFSSPWYPTNYPTDTECIWEIHVAEKFNIELTIPSLK | failed
3 | MAFDGCCPDCKLPGDDCPLIWGACNHAFHLHCILKWVNSQTSQAHCPMCRREWQFKE | failed
4 | MAFGSFARSGGSSRFLFTAGRMAQQLTVSIGQASSPGRKPVNQDFYGALIPAEPLLITKGIALALADGISSSDISQVASESAVKSFLTDYYCTSEAWSVKSSAQRVIAATNSWLHAETRRSDYRYDRDKGYVCTLSALVIKGAAAHLFHIGDSRIYRLAGASLEQLTEDHRVRLSAEQSYLGRALGVNPQVEIDYLSVPIGSGDLFVLATDGVYEHVAHRFVVQTLRDHGDDLDAAARAIVGEAFNNGSDDNLTVQVVRIESVPGADSIDLFERVAELPLPPLLEPRAEFDGYRIIRELHGSSRSHIYLASDLATGELVVLKIPSADLRDDPEYRKRFMLEEWAARRIDSPHVLKPCVVQRPRSYLYVTFEYIEGQTLAQWMIDHPRAELETVRGLIEQIAKGLYAFHRKEMVHQDLRPANVLIDRSGTVKIIDFGSVRVAGVAELGPAGGDELLGTVQYMAPEYFAGQGGSALSDQFSLGVIAYQMLTGRLPYGAELARANQALKSRKLRYSAAADHNAKVPVWVDRALQRAVSLDPAKRYPALSEFVHDLRHPRADYLDARPQPLAARNPLLFLQLLSALLALIVVGLLARLHGSI | failed
5 | MAFTKIIFKNPNTGAIKEAPVGFSWTVFFFGFIPALFRADWKWAAIMFLLAMFTFGLSNLVFMFIYNKLYVRDLIGAGFKAQSIASGDLNFASSRIGMEIPRLEAA | failed
6 | MAGAAHRLMEARMRRYDNKFARISDIDINQPESWRGRIFLTFDIDWAADFVLQDTIDLIEGAGVCATWFATHSTPLLENIRRNPLFELGVHPNFNPLLAGAHAEGVQEILDRTLELAPGCVSVRSHSLVQATSILNMFGERRLRYDCNILVPWDAGIVLQPWRHWTGDMVRVPYLWEDDVACLYDWEFDSTFDYWYQPDGINVLDFHPIHVYMNTESLRRYEDSREVHRNPVDLIRWRNTSAGSRTFLQSLLARNI | not failed
7 | MAGAPGPLRLALLLLGMVGRAGPRPQGATVSLWETVQKWREYRRQCQRSLTEDPPPATDLFCNRTFDEYACWPDGEPGSFVNVSCPWYLPWASSVPQGHVYRFCTAEGLWLQKDNSSLPWRDLSECEESKRGERSSPEEQLLFLYIIYTVGYALSFSALVIASAILLGFRHLHCTRNYIHLNLFASFILRALSVFIKDAALKWMYSTAAQQHQWDGLLSYQDSLSCRLVFLLMQYCVAANYYWLLVEGVYLYTLLAFSVLSEQWIFRLYVSIGWGVPLLFVVPWGIVKYLYEDEGCWTRNSNMNYWLIIRLPILFAIGVNFLIFVRVICIVVSKLKANLMCKTDIKCRLAKSTLTLIPLLGTHEVIFAFVMDEHARGTLRFIKLFTELSFTSFQGLMVAILYCFVNNEVQLEFRKSWERWRLEHLHIQRDSSMKPLKCPTSSLSSGATAGSSMYTATCQASCS | failed
8 | MAGAQPGVHALQLEPPTVVETLRRGSKFIKWDEETSSRNLVTLRVDPNGFFLYWTGPNMEVDTLDISSIRDTRTGRYARLPKDPKIREVLGFGGPDARLEEKLMTVVSGPDPVNTVFLNFMAVQDDTAKVWSEELFKLAMNILAQNASRNTFLRKAYTKLKLQVNQDGRIPVKNILKMFSADKKRVETALESCGLKFNRSESIRPDEFSLEIFERFLNKLCLRPDIDKILLEIGAKGKPYLTLEQLMDFINQKQRDPRLNEVLYPPLRPSQARLLIEKYEPNQQFLERDQMSMEGFSRYLGGEENGILPLEALDLSTDMTQPLSAYFINSSHNTYLTAGQLAGTSSVEMYRQALLWGCRCVELDVWKGRPPEEEPFITHGFTMTTEVPLRDVLEAIAETAFKTSPYPVILSFENHVDSAKQQAKMAEYCRSIFGDALLIEPLDKYPLAPGVPLPSPQDLMGRILVKNKKRHRPSAGGPDSAGRKRPL | failed
9 | MAGASLFTLLDDIATLLDDVSILTKVAAKKTAGVLGDDLALNAQQVTGVTADRELPVVWAVAKGSLVNKVILVPAALAISALEAWLRGRGYNVPLVMPLMMIGGAYLCFEGVEKLAHKFLHSEEEDAQRHAERTRVLADEAVDVVALEKDKVKGAIRTDFILSAEIIVLSLGVVAGVSFGQQVAVLVAIALAMTIGVYGLVAGIVKLDDLGLYLSKKGAALAALGRGILVAAPWLMKFLSVAGTLAMFLVGGGILVHNIPTLHHLVVDLAKASGSLGWLVEALGNMLVGVVAGAVVLAAVTGFQKLRGNRPRTDSVQSLRRQAKSRTG | failed
10 | MAGAYLHIPFCEHICYYCDFNKVFIEGQPVDDYVAMLLKEMRMVMAEHPEEKIQTVYVGGGTPSTLTPTQLATLCQGIHDILHFDQGEFTFEANPNDLLTTEKLQVLHDYGVNRLSIGVQSFNDDVLRRIGRIHRAKDVYTAIANARQVGFDNISIDLIFRLPDQSRDDFLTSLQKALALDLPHYSTYSLILERKTIFYNLMRQGKLRLPTQDVEADMYQDAIDLMEAHGRHQYEISNFAKDGYQCEHNLLYWRNDKYFGFGAGAFGYLGRDRYHNYGPIKQYLTPLHADHLPVLEHHLVPQSEQIEEEMFLGLRTMQGVSEARFYDRYHMTVDAIYGETVPELVSQGLVVRQDGYIRLTNKGKFLGNEVFQRFLIDEPLVLEHHHHHH | not failed
11 | MAGCRTNAKGNAMPISIRIGNQDLTVDVSSLGAEMQALTSGDGRSWLWTGDAAFWTGRSPILFPIVGKAPDDKIAIDGTVYPMAQHGFARRSEFALAASTETMCRFELAASEATRAVYPFDFQLAVVHAVEGRALTVTAEVTNRDPKPMPFGLGFHSAFAWPLPGASGRDHIVTLDNKGEPALVRLEGGLINPAPLPSPFNAGRLVLDHSMFEQDAMIFPDGAGEGLAYGSEGGPAMRFHFKNLPNLALWTKPGAPFLCIEPWHGTAAEAGASSELSKRPSTTILAPGAVASFAFTVEIPQ | failed
12 | MAGKRKSRRGFGRVRKLPSGRFQARYPGPDGVLRPADRTFATTTDADRWLMRKRIEIEEGCWLDPAEGQTTVRDWAARWLAAVSPQLKHKTQASYRSLINSLINPVLGDRELSSLRPITVTEWVGAMRTKGLSASRIRQAYRVLSQIMRSAVDNDMIPQTPCRGVRLPRMPQTEPHILTPLEASRIVKGATKPHDLLIALLAYAGLRVGEAFALRRVDVDVSGGFVLVDENLAEANGVLVFDTPKSHQKRLLRVGPSLAKRLGRHLETLPGGDDALLFTTPGGKPLRYNQWRKAYFDPAVSAAGLTDVTPHDLRASHGTWVADRYGVMTAAHRLGHSNASVTTRHYARPVAGRDDQVAEAADSWLSGSEDNDDGSAAVPA | failed
13 | MAGLSTAELVDIALEMAEMRTLPADSAVYVESTDLKRVMMGIDIGPAELLLARQLGCDGVIAHHPAGGSATLNFPEVLTRHVELMVEHGVPATAARDAIQGLLTRSLLRAQSANHDHTPSVARLLEMPFLNIHLPLDEVGRRIMVKTIQEAVEPLGDEARVQDAIDALMTLPEFAGAATRIMVPVGAVDQPLGKIAVVHGAGTNGGYAVARAYFDHGVRTVLYIHIAPEEAERLRREGGGNLIVTGHIASDLVGINRYVQALEERGVEVVRMSGL | not failed
14 | MAGNAPLQQVQKKWAECQYSTPDGDEKEQCFHRAIAKTSIYLDREPGNPELTVWLAINKASLAGAQGGFGALSLAKEAKSLLEGVIATSPQTLDGSAYTSLGSLYYKVPGWPIGFGDDDKAEEMLKKALEINPKGIDPNYFYGDFLAEEGRDKEAKVYLTRAMQASPRPDRPLADKGRKLEIEATLGRLKLEHHHHHH | not failed
15 | MAGRRLIIGDVHGHYRSLYRLLELADPDTDDQVYCLGDLIDRGPDSAKVVALVRSQGYTSLMGNHEHLLSQVLAFPDLSELRLHWFQAGGQATLASFGSWEALEELRPWLQQLPLYLDLGEIWLVHAGVDPDLPLSRQDANEFCWIRDQFLARSQPFFANKTILVGHTITCTMAGIQPGYVAAGAGWLGLDTGVYHPRSGWLTALDWDNQRVFQVQAQSNETRVCDLAERLQTVLSNPAKGRRSLLRYPRDQVSPS | failed
16 | MAGTTEITTKPERVVVLDTGELDSVLSLGITPVGMTTTKGANPVPSYLADKVKDVERVGTINELNIEAIAALKPDLIIGSQLRADKLYPQLSDIAPTVFSIRPGSPWKENFLLVGEALGMEKEAEEKLNEYADRVAELKNNVPQNTEVSLVRFMPNKLRLYGNKSLIGVVLADAGLARPEKQNVDDLAVEISPENIDQAAGSVIFYTSYGKPDATGETAVVEGPAWKNLEAVAAGKAHRVNDDVWFLGLGPTGAMEIVSDLHDYLLEHHHHHH | not failed
17 | MAHATPPSALEQGGPIRVEHDRQRRQFSVRLNGCHDRAVLLYEYVGKRIVDLQHTEVPDAYRGRGIAKHLAKAALDFVVEEDLKAHLTCWYIQKYVKENPLPQYLERLQP | failed
18 | MAHELSAGSVFAGYRIERMLGAGGMGTVYLARNPDLPRSEALKVLAAELSRDLDFRARFVREADVAAGLDHPNIVAVHQRGQFEGRLWIAMQFVDGGNAEDALRAATMTTARAVYVIGEVAKALDYAHQQGVIHRDIKPANFLLSRAAGGDERVLLSDFGIARALGDTGLTSTGSVLATLAYAAPEVLAGQGFDGRADLYSLGCALFRLLTGEAPFAAGAGAAVAVVAGHLHQPPPTVSDRVPGLSAAMDAVIATAMAKDPMRRFTSAGEFAHAAAAALYGGATDGWVPPSPAPHVISQGAVPGSPWWQHPVGSVTALATPPGHGWPPGLPPLPRRPRRYRRGVAAVAAVMVVAAAAVTAVTMTSHQPRTATPPSAAALSPTSSSTTPPQPPIVTRSRLPGLLPPLDDVKNFVGIQNLVAHEPMLQPQTPNGSINPAECWPAVGGGVPSAYDLGTVIGFYGLTIDEPPTGTAPNQVGQLIVAFRDAATAQRHLADLASIWRRCGGRTVTLFRSEWRRPVELSTSVPEVVDGITTMVLTAQGPVLRVREDHAIAAKNNVLVDVDIMTPDTSRGQQAVIGITNYILAKIPG | failed
19 | MAHHHHHHMNPHPVEPRDQIAELLVESPLFSFNCAHFIAFKGFRETLHGHNYNVSLRLRGNIQGDGYVIDFSILKEKVRKVCKQLDHHFILPMYSDVLNIQEVNDNFKITCEDNSEYSFPKRDCVQIPIKHSSTEEIGLYILNQLIEEIDLPFLKTRSVNYMEVTVSESPSQKATVHRNI | not failed
